Reference: publication PMC8491169 (Experimental eye research, 2021)

Molecular target: full-length recombinant human proteoglycan 4 (rhPRG4) (human, UniProt Q92954 25-1404)
Assay: SPR

Kd: 42.1 nM | koff: 0.000937 s⁻¹ | kon: 22300 M⁻¹ s⁻¹
B1: recombinant human matrix metalloproteinase 9 (rhMMP-9) (enzyme)
chain: APRQRQSTLVLFPGDLRTNLTDRQLAEEYLYRYGYTRVAEMRGESKSLGPALLLLQKQLSLPETGELDSATLKAMRTPRCGVPDLGRFQTFEGDLKWHHHNITYWIQNYSEDLPRAVIDDAFARAFALWSAVTPLTFTRVYSRDADIVIQFGVAEHGDGYPFDGKDGLLAHAFPPGPGIQGDAHFDDDELWSLGKGVVVPTRFGNADGAACHFPFIFEGRSYSACTTDGRSDGLPWCSTTANYDTDDRFGFCPSERLYTQDGNADGKPCQFPFIFQGQSYSACTTDGRSDGYRWCATTANYDRDKLFGFCPTRADSTVMGGNSAGELCVFPFTFLGKEYSTCTSEGRGDGRLWCATTSNFDSDKKWGFCPDQGYSLFLVAAHEFGHALGLDHSSVPEALMYPMYRFTEGPPLHKDDVNGIRHLYGPRPEPEPRPPTTTTPQPTAPPTVCPTGPPTVHPSERPTAGPTGPPSAGPTGPPTAGPSTATTVPLSPVDDACNVNIFDAIAEIGNQLYLFKDGKYWRFSEGRGSRPQGPFLIADKWPALPRKLDSVFEERLSKKLFFFSGRQVWVYTGASVLGPRRLDKLGLGADVAQVTGALRSGRGKMLLFSGRRLWRFDVKAQMVDPRSASEVDRMFPGVPLDTHDVFQYREKAYFCQDRFYWRVSSRSELNQVDQVGYVTYDILQCPED
